Source: patent US20250188146A1

Legend:
CD19 = CD19 (UniProt P15391); test: cell-based or functional assay
[1] = molecular target: CLDN18.2 on KATO III-18.2+ cells (UniProt P56856); test: cell-based or functional assay

CD19, sequence (P15391 20-556 limits assumed): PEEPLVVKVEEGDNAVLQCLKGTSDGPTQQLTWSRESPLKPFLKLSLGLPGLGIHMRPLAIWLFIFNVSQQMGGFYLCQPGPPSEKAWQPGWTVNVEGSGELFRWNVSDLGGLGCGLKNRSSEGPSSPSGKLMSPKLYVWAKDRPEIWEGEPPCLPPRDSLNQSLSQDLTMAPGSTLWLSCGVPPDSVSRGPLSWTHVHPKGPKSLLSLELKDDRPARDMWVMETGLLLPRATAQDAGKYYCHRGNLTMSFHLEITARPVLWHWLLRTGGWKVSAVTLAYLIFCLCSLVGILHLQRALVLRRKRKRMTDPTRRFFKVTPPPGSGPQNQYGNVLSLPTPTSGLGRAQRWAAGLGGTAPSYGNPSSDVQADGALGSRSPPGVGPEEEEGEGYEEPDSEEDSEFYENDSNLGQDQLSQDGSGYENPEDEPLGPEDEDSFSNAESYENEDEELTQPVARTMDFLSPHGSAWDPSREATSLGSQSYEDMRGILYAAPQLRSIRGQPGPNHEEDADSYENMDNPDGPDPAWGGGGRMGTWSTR

B1: CD19 CAR with humanized CD19 scFv (binding domain SEQ ID NO: 5) (protein, not shown: a dimerising Fc or GST)
chain: DIQMTQSPSSLSASVGDRVTITCRASQDISKYLNWYQQKPGKAPKLLIYHTSRLHSGVPSRFSGSGSGTDFTLTISSLQPEDFATYYCQQGNTLPYTFGQGTKVEIKGGGGSGGGGSGGGGSEVQLVESGGGLVQPGGSLRLSCAASGVSLPDYGVSWVRQAPGKGLEWVSVIWGSETTYYNSALKSRFTISRDNAKNSLYLQMNSLRAEDTAVYYCAKHYYYGGSYAMDYWGQGTLVTVSS
CD19
  CD25, hCAR+ cells; K19 co-culture 24 h; PBMC+, IL6+, IL15-: 48.3%
  CD25, hCAR+ cells; K19 co-culture 24 h; PBMC+, IL6-, IL15-: 53%
  CD25, hCAR+ cells; K19 co-culture 24 h; PBMC-, IL6+, IL15-: 52.3%
  CD25, hCAR+ cells; K19 co-culture 24 h; PBMC-, IL6-, IL15+: 57.1%
  CD25, hCAR+ cells; K19 co-culture 24 h; PBMC-, IL6-, IL15-: 53.1%
  CD25, hCAR+ cells; K19 co-culture 48 h; PBMC+, IL6+, IL15-: 34.2%
  CD25, hCAR+ cells; K19 co-culture 48 h; PBMC+, IL6-, IL15-: 35.8%
  CD25, hCAR+ cells; K19 co-culture 48 h; PBMC-, IL6+, IL15-: 39.1%
  CD25, hCAR+ cells; K19 co-culture 48 h; PBMC-, IL6-, IL15+: 43.4%
  CD25, hCAR+ cells; K19 co-culture 48 h; PBMC-, IL6-, IL15-: 41.5%
  CD25 MFI, hCAR+ cells; K19 co-culture 24 h; PBMC+, IL6+, IL15-: 6740 MFI
  CD25 MFI, hCAR+ cells; K19 co-culture 24 h; PBMC+, IL6-, IL15-: 7080 MFI
  CD25 MFI, hCAR+ cells; K19 co-culture 24 h; PBMC-, IL6+, IL15-: 6480 MFI
  CD25 MFI, hCAR+ cells; K19 co-culture 24 h; PBMC-, IL6-, IL15+: 6060 MFI
  CD25 MFI, hCAR+ cells; K19 co-culture 24 h; PBMC-, IL6-, IL15-: 6200 MFI
  CD25 MFI, hCAR+ cells; K19 co-culture 48 h; PBMC+, IL6+, IL15-: 11200 MFI
  CD25 MFI, hCAR+ cells; K19 co-culture 48 h; PBMC+, IL6-, IL15-: 11800 MFI
  CD25 MFI, hCAR+ cells; K19 co-culture 48 h; PBMC-, IL6+, IL15-: 12300 MFI
  CD25 MFI, hCAR+ cells; K19 co-culture 48 h; PBMC-, IL6-, IL15+: 11400 MFI
  CD25 MFI, hCAR+ cells; K19 co-culture 48 h; PBMC-, IL6-, IL15-: 11100 MFI
  CD137, hCAR+ cells; K19 co-culture 24 h; PBMC+, IL6+, IL15-: 35.6%
  CD137, hCAR+ cells; K19 co-culture 24 h; PBMC+, IL6-, IL15-: 39.9%
  CD137, hCAR+ cells; K19 co-culture 24 h; PBMC-, IL6+, IL15-: 55.8%
  CD137, hCAR+ cells; K19 co-culture 24 h; PBMC-, IL6-, IL15+: 62.1%
  CD137, hCAR+ cells; K19 co-culture 24 h; PBMC-, IL6-, IL15-: 57.4%
  CD137, hCAR+ cells; K19 co-culture 48 h; PBMC+, IL6+, IL15-: 28%
  CD137, hCAR+ cells; K19 co-culture 48 h; PBMC+, IL6-, IL15-: 47.1%
  CD137, hCAR+ cells; K19 co-culture 48 h; PBMC-, IL6+, IL15-: 57.6%
  CD137, hCAR+ cells; K19 co-culture 48 h; PBMC-, IL6-, IL15+: 58.6%
  CD137, hCAR+ cells; K19 co-culture 48 h; PBMC-, IL6-, IL15-: 57.3%
  CD137MFI, hCAR+ cells; K19 co-culture 24 h; PBMC+, IL6+, IL15-: 18100 MFI
  CD137MFI, hCAR+ cells; K19 co-culture 24 h; PBMC+, IL6-, IL15-: 19000 MFI
  CD137MFI, hCAR+ cells; K19 co-culture 24 h; PBMC-, IL6+, IL15-: 23400 MFI
  CD137MFI, hCAR+ cells; K19 co-culture 24 h; PBMC-, IL6-, IL15+: 25500 MFI
  CD137MFI, hCAR+ cells; K19 co-culture 24 h; PBMC-, IL6-, IL15-: 26800 MFI
  CD137MFI, hCAR+ cells; K19 co-culture 48 h; PBMC+, IL6+, IL15-: 43000 MFI
  CD137MFI, hCAR+ cells; K19 co-culture 48 h; PBMC+, IL6-, IL15-: 24800 MFI
  CD137MFI, hCAR+ cells; K19 co-culture 48 h; PBMC-, IL6+, IL15-: 51500 MFI
  CD137MFI, hCAR+ cells; K19 co-culture 48 h; PBMC-, IL6-, IL15+: 51900 MFI
  CD137MFI, hCAR+ cells; K19 co-culture 48 h; PBMC-, IL6-, IL15-: 52600 MFI
  CD137 expression of CAR T CD8+ cells, co-culture 48 h with Nalm-6: 11.1%
  IFN-γ release, background subtracted; K19 co-culture 24 h; PBMC+, IL6+, IL15-: 64300
  IFN-γ release, background subtracted; K19 co-culture 24 h; PBMC+, IL6-, IL15-: 64800
  IFN-γ release, background subtracted; K19 co-culture 24 h; PBMC-, IL6+, IL15-: 19200
  IFN-γ release, background subtracted; K19 co-culture 24 h; PBMC-, IL6-, IL15+: 21300
  IFN-γ release, background subtracted; K19 co-culture 24 h; PBMC-, IL6-, IL15-: 16000
  IFN-γ release, background subtracted; K19 co-culture 48 h; PBMC+, IL6+, IL15-: 152000
  IFN-γ release, background subtracted; K19 co-culture 48 h; PBMC+, IL6-, IL15-: 160000
  IFN-γ release, background subtracted; K19 co-culture 48 h; PBMC-, IL6+, IL15-: 120000
  IFN-γ release, background subtracted; K19 co-culture 48 h; PBMC-, IL6-, IL15+: 134000
  IFN-γ release, background subtracted; K19 co-culture 48 h; PBMC-, IL6-, IL15-: 114000

B2: 18.2 CAR (protein, part only; not given: Hinge, transmembrane and signaling domains, part only)
chain, part: DIVMTQSPSSLTVTAGEKVTMSCKSSQSLLNSGNQKNYLTWYQQKPGQPPKLLIYWASTRESGVPDRFTGSGSGTDFTLTISSVQAEDLAVYYCQNDYSYPFTFGSGTKLEIKGGGGSGGGGSGGGGSQVQLQQPGAELVRPGASVKLSCKASGYTFTSYWINWVKQRPGQGLEWIGNIYPSDSYTNYNQKFKDKATLTVDKSSSTAYMQLSSPTSEDSAVYYCTRSWRGNSFDYWGQGTTLTVSS
[1]
  CD137 expression of CAR T CD8+ cells, co-culture 48 h with KATO III-18.2+: 8.77%
